# Source: paper PMC8002387
# Target: QtEnc^FLAG (encapsulin shell protein from Quasibacillus thermotolerans with a C-terminal FLAG tag) (Quasibacillus thermotolerans)
substance,measurement,value
DD-mScarlet-I-QtSig (destabilized fluorescent cargo protein),mScarlet-I fluorescence (RFP channel) of HepG2 cells coexpressing QtEnc^FLAG and the degron-tagged cargo; share of fluorescent cells; cells with the cargo alone gave a weak background signal,20 % of cells
